Reference: patent US5750362A, “Methods for identifying substances with a potential herbicidal or growth-regulating action by means of plant transporter proteins, the use of the transporter proteins, and substances with a herbicidal and growth-regulating action” (BASF Aktiengesellschaft, priority 1993, dated 1998)

T1: ammonium transporter AMT1 (Arabidopsis thaliana, UniProt P54144)
T1 construct: expressed in transfected cells; host or cells: Saccharomyces cerevisiae 26972c (mutations in MEP1 and MEP2)
T1 sequence (P54144 1-501): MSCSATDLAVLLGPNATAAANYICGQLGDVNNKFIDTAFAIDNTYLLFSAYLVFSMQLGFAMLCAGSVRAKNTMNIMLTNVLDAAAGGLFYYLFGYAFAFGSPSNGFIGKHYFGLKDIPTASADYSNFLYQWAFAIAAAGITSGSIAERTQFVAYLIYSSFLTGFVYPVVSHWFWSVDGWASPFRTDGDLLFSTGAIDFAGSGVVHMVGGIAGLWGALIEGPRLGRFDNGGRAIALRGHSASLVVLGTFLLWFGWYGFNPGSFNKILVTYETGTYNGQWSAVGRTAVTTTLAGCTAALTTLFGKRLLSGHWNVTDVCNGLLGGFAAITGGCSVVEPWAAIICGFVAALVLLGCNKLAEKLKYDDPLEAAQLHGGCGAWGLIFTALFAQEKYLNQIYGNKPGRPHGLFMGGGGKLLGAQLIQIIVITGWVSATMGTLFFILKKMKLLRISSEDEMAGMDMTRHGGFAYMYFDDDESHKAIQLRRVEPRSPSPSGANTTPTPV

B1: sucrose transporter P62 (StSUT1) (Solanum tuberosum) (protein)
chain: MENGTKREGLGKLTVSSSLQVEQPLAPSKLWKIIVVASIAAGVQFGWALQLSLLTPYVQLLGIPHKFASFIWLCGPISGMIVQPVVGYYSDNCSSRFGRRRPFIAAGAALVMIAVFLIGFAADLGHASGDTLGKGFKPRAIAVFVVGFWILDVANNMLQGPCRALLADLSGGKSGRMRTANAFFSFFMAVGNILGYAAGSYSHLFKVFPFSKTKACDMYCANLKSCFFIAIFLLLSLTTIALTLVRENELPEKDEQEIDEKLAGAGKSKVPFFGEIFGALKELPRPMWILLLVTCLNWIAWFPFFLYDTDWMAKEVFGGQVGDARLYDLGVRAGAMGLLLQSVVLGFMSLGVEFLGKKIGGAKRLWGILNFVLAICLAMTILVTKMAEKSRQHDPAGTLMGPTPGVKIGALLLFAALGIPLAATFSIPFALASIFSSNRGSGQGLSLGVLNLAIVVPQMLVSLVGGPWDDLFGGGNLPGFVVGAVAAAASAVLALTMLPSPPADAKPAVAMGLSIK
notes: whole-cell [14C]-sucrose uptake; no tag or borders given

Legend:
[1] = target: T1, ammonium transporter AMT1; test: Substrate specificity, Km and Ki determination of the ammonium transporter in yeast strain 26972c; assay type: cell-based; conditions: inhibition of methylamine transport by various concentrations of ammonium; read-out: Ki (inhibitor constant)
Method: The investigations of the substrate specificity and the Km determinations are carried out with the yeast strain .music-natural. 26972c (Dubois & Grenson, Mol. Gen. Genet. 175: 67-76, 1979) which expresses the plant ammonium transporter AMT1. The method for this is as in Example 6, except for the fact that the methylamine substrate concentration is varied. […] To determine the affinity of the transport system for ammonium, the inhibition of methylamine transport by various concentration [sic] of ammonium is determined (inhibitor constant, Ki)

[2] = substrate: OC[C@H]1O[C@H](O[C@H]2[C@H](O)[C@@H](O)[C@H](O)O[C@@H]2CO)[C@H](O)[C@@H](O)[C@@H]1O; test: Substrate specificity and Km determination of the sucrose transporter in yeast strain SUSY7-pP62; assay type: cell-based, Solanum tuberosum; conditions: other: substrate of the sucrose transporter; substrate concentration varied, no inhibitors
Method: (§1) The investigations of the substrate specificity and the Km determination are carried out in the yeast strain SUSY7-pP62 (StSUT1) (Riesmeier et al., 1993, Plant Cell 5:1591-1598), which expresses the sucrose transporter from Solanum tuberosum. This entails carrying out the method of Example 3 apart from the fact that the substrate concentration is changed and no potential inhibitors are added. […]

[3] = substrate: OC[C@H]1O[C@@](CO)(O[C@H]2O[C@H](CO)[C@@H](O)[C@H](O)[C@H]2O)[C@@H](O)[C@@H]1O; test: as above; assay type: cell-based, Solanum tuberosum; conditions: other: substrate of the sucrose transporter; substrate concentration varied, no inhibitors
Method: as §1

Row | Molecule | Ki [1] [µM] | Km [2] [mM] | Km [3] [mM]
1 | N [ammonium] | < 10 |  | 
2 | B1 |  | 10 | 1
